PMC7544158 (Nature structural & molecular biology, 2020)
Where two headings read alike, the source gives them in different places. Where no end group is shown, it is not given here. The star is where a group is joined. FITC = O=C1OC2(c3ccc(O)cc3Oc3cc(O)ccc32)c2ccc(NC(=S)*)cc21

Legend:
Experiment in all cases: fluorescence polarisation
[1] = target: T1, BFL-1ΔC C55 (N-His6 BFL-1ΔC (1–151) bearing C4S/C19S mutations) (human, UniProt Q16548 1-151, C4S | C19S)
T1 sequence (looked up): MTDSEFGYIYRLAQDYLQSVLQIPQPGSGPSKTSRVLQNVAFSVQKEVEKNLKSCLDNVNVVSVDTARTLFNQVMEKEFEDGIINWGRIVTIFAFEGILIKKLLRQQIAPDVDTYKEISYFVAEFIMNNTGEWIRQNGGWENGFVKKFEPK

[2] = target: T1, BFL-1ΔC C55 (N-His6 BFL-1ΔC (1–151) …); remark: listed apart in the source
[3] = target: T1, BFL-1ΔC C55 (N-His6 BFL-1ΔC (1–151) …); remark: listed apart in the source
[4] = target: T1, BFL-1ΔC C55 (N-His6 BFL-1ΔC (1–151) …); remark: listed apart in the source
[5] = target: T1, BFL-1ΔC C55 (N-His6 BFL-1ΔC (1–151) …); remark: listed apart in the source

- Kd [1]: 18.4 nM
- Kd [2]: 12.3 nM
- Kd [3]: 3.3 nM
- Kd [4]: 1.6 nM
- Kd [5]: 24.3 nM
Binder: {FITC}-DIIRNIARHLAQVGDSMDRSI [FITC-BID BH3 peptide]
